By Km is commonly meant the concentration of substrate that gives half-maximal velocity. The kcat is the number of substrate molecules converted per active site and unit of time at saturation. As usually defined, the kcat/Km is the second-order rate constant that governs catalysis at low substrate concentration.

Holding throughout (type): biochemical
Substrate in series [1]: CC[C@H](C)[C@H](NC(=O)[C@H](CCC(=O)O)NC(=O)[C@H](CCC(=O)O)NC(=O)[C@H](Cc1c[nH]cn1)NC(=O)[C@H](C)NC(=O)[C@H](CCCNC(=N)N)NC(=O)CCCCCNC(=O)CCCC[C@@H]1SC[C@@H]2NC(=O)N[C@@H]21)C(=O)N[C@@H](Cc1ccc(O)cc1)C(=O)N[C@@H](Cc1c[nH]cn1)C(=O)N[C@@H](Cc1ccccc1)C(=O)N[C@@H](Cc1ccccc1)C(=O)N[C@@H](Cc1ccccc1)C(=O)N[C@@H](C)C(=O)N[C@@H](CCCCN)C(=O)N[C@@H](CCCCN)C(=O)N[C@@H](CCCCN)C(N)=O
As to the kind of experiment: Kinetic evaluation of peptide substrates, varying peptide at fixed ATP (phosphocellulose filter, [γ-33P]ATP). The following applies: other: ErbB-4; Km for peptide; ATP concentration >10 × Km (200 μM ATP); pH 7.5; 23.0 °C. As for the experimental part: (§1) Peptide sequences identified as preferred substrates for ErbB-2 using the methods described in Laboratory Example 3 were synthesized. The kcat and Km values for each peptide were determined as follows, using the kinases ErbB-2, ErbB-4, and EGFR.
(§2) Reactions were performed in 96-well polystyrene round bottom plates in a final volume of 45 μL. Reaction mixtures contained 50 mM MOPS, pH 7.5, 10 mM MnCl2, 1 mM dithiothreitol (DTT), 200 μM ATP, 1.0 μCi [γ-^33P] ATP, and varying concentrations of peptide. The reaction was initiated by adding the purified kinase of interest and halted after 10 minutes at 23° C. (room temperature) by adding 45 μL of 0.5% phosphoric acid in water. A 75 μL aliquot of the halted reaction mixture was then transferred to MAPH phosphocellulose filter plates (Millipore, Bedford, Mass.). The plates were filtered three times with 0.2 mL of 0.5 percent phosphoric acid. Scintillation cocktail (50 μL) was added to each well, and the plate was analyzed by counting in a Packard TOPCOUNT® scintillation counter (Packard Instrument Co., Meriden, Conn.). In these assays, the concentration of ATP was greater than ten-fold higher than the Km for ATP, which permitted the kinetic data to be treated as a pseudo-first-order reaction with varying peptide concentration. All experiments were performed in quadruplicate and the average value for each data point was analyzed. The Km and Vmax values were calculated by fitting the data to the Henri-Michaelis-Menten equation by non-linear regression using SIGMAPLOT® (SPSS Science, Chicago, Ill.). kcat values were calculated using the Vmax value, and are based on the protein concentration of the enzyme preparation and an estimate of purity determined from an evaluation of a Coomassie Blue stained SDS-polyacrylamide gel.

Substrate in series [2]: CC[C@H](C)[C@H](NC(=O)[C@H](CCC(=O)O)NC(=O)[C@H](Cc1c[nH]cn1)NC(=O)[C@H](Cc1c[nH]cn1)NC(=O)[C@H](C)NC(=O)[C@H](CCCNC(=N)N)NC(=O)CCCCCNC(=O)CCCC[C@@H]1SC[C@@H]2NC(=O)N[C@@H]21)C(=O)N[C@@H](Cc1ccc(O)cc1)C(=O)N[C@@H](Cc1c[nH]cn1)C(=O)N[C@@H](Cc1ccccc1)C(=O)N[C@@H](Cc1ccccc1)C(=O)N[C@@H](Cc1ccccc1)C(=O)N[C@@H](C)C(=O)N[C@@H](CCCCN)C(=O)N[C@@H](CCCCN)C(=O)N[C@@H](CCCCN)C(N)=O
The series is described as above. The following applies: other: ErbB-4; Km for peptide; ATP concentration >10 × Km (200 μM ATP); pH 7.5; 23.0 °C. As for the experimental part: as §1, §2

Substrate in series [3]: CC[C@H](C)[C@H](NC(=O)[C@H](Cc1ccccc1)NC(=O)[C@H](Cc1c[nH]cn1)NC(=O)[C@H](Cc1ccc(O)cc1)NC(=O)[C@H](CCC(=O)O)NC(=O)[C@H](CCC(=O)O)NC(=O)[C@H](CCC(=O)O)NC(=O)[C@H](Cc1c[nH]cn1)NC(=O)[C@H](C)NC(=O)[C@H](CCCNC(=N)N)NC(=O)CCCCCNC(=O)CCCC[C@@H]1SC[C@@H]2NC(=O)N[C@@H]21)C(=O)N[C@@H](Cc1ccccc1)C(=O)N[C@@H](C)C(=O)N[C@@H](CCCCN)C(=O)N[C@@H](CCCCN)C(=O)N[C@@H](CCCCN)C(N)=O
The description is as above. Particulars: other: ErbB-4; Km for peptide; ATP concentration >10 × Km (200 μM ATP); pH 7.5; 23.0 °C. As for the experimental part: as §1, §2

Substrate in series [4]: C[C@H](NC(=O)[C@H](CCCNC(=N)N)NC(=O)CCCCCNC(=O)CCCC[C@@H]1SC[C@@H]2NC(=O)N[C@@H]21)C(=O)N[C@@H](Cc1c[nH]cn1)C(=O)N[C@@H](CCC(=O)O)C(=O)N[C@@H](CCC(=O)O)C(=O)N[C@@H](CCC(=O)O)C(=O)N[C@@H](Cc1ccc(O)cc1)C(=O)N[C@@H](Cc1c[nH]cn1)C(=O)N[C@@H](Cc1ccccc1)C(=O)N[C@@H](Cc1ccccc1)C(=O)N[C@@H](Cc1ccccc1)C(=O)N[C@@H](C)C(=O)N[C@@H](CCCCN)C(=O)N[C@@H](CCCCN)C(=O)N[C@@H](CCCCN)C(N)=O
The series is described as above. Particulars: other: ErbB-4; Km for peptide; ATP concentration >10 × Km (200 μM ATP); pH 7.5; 23.0 °C. As for the experimental part: as §1, §2

Substrate in series [5]: CC[C@H](C)[C@H](NC(=O)[C@H](CC(=O)O)NC(=O)[C@H](CCC(=O)O)NC(=O)[C@H](CCSC)NC(=O)CNC(=O)CNC(=O)CCCCCNC(=O)CCCC[C@@H]1SC[C@@H]2NC(=O)N[C@@H]21)C(=O)N[C@@H](Cc1ccc(O)cc1)C(=O)N[C@@H](Cc1ccccc1)C(=O)N[C@@H](CCC(=O)O)C(=O)N[C@@H](Cc1ccccc1)C(=O)N[C@@H](CCSC)C(=O)NCC(=O)NCC(=O)N[C@@H](CCCCN)C(=O)N[C@@H](CCCCN)C(=O)N[C@@H](CCCCN)C(N)=O
As to the kind of experiment: Two-substrate kinetic comparison with known substrate, peptide and ATP varied simultaneously. The following applies: other: ErbB-4; peptide and ATP concentrations varied simultaneously, two-substrate fit. As for the experimental part:
(§3) In a separate experiment, the kinetic parameters of both peptide number 1 shown in Table 2, and a peptide with the sequence Biotin-Ahx-G-G-M-E-D-I-Y-F-E-F-M-G-G-K-K-K-amide (SEQ ID NO: 17), which has been previously identified as an ErbB-2 substrate (Jan et. al., (2000), Biochemistry 39: 9786-803), were determined and compared. In this experiment, both peptide and ATP concentrations were varied, and the resulting data was simultaneously fit to an equation representing a two-substrate enzyme reaction using SIGMAPLOT®. Data was collected using the kinases ErbB-2, ErbB-4, and EGFR. The results of this experiment are shown in Table 3 and indicate that for all three kinases tested, peptide number 1 shown in Table 2 is kinetically at least equivalent (based on kcat/Km values) to the known peptide substrate identified by Jan et al.

Substrate in series [6]: CC[C@H](C)[C@H](NC(=O)[C@H](CCC(=O)O)NC(=O)[C@H](CCC(=O)O)NC(=O)[C@H](Cc1c[nH]cn1)NC(=O)[C@H](C)NC(=O)[C@H](CCCNC(=N)N)NC(=O)CCCCCNC(=O)CCCC[C@@H]1SC[C@@H]2NC(=O)N[C@@H]21)C(=O)N[C@@H](Cc1ccc(O)cc1)C(=O)N[C@@H](Cc1c[nH]cn1)C(=O)N[C@@H](Cc1ccccc1)C(=O)N[C@@H](Cc1ccccc1)C(=O)N[C@@H](Cc1ccccc1)C(=O)N[C@@H](C)C(=O)N[C@@H](CCCCN)C(=O)N[C@@H](CCCCN)C(=O)N[C@@H](CCCCN)C(N)=O
The description is as above. The following applies: other: ErbB-4; peptide and ATP concentrations varied simultaneously, two-substrate fit. As for the experimental part: as §3

B1: ErbB-4 (Homo sapiens) (protein)
chain: QSVCAGTENKLSSLSDLEQQYRALRKYYENCEVVMGNLEITSIEHNRDLSFLRSVREVTGYVLVALNQFRYLPLENLRIIRGTKLYEDRYALAIFLNYRKDGNFGLQELGLKNLTEILNGGVYVDQNKFLCYADTIHWQDIVRNPWPSNLTLVSTNGSSGCGRCHKSCTGRCWGPTENHCQTLTRTVCAEQCDGRCYGPYVSDCCHRECAGGCSGPKDTDCFACMNFNDSGACVTQCPQTFVYNPTTFQLEHNFNAKYTYGAFCVKKCPHNFVVDSSSCVRACPSSKMEVEENGIKMCKPCTDICPKACDGIGTGSLMSAQTVDSSNIDKFINCTKINGNLIFLVTGIHGDPYNAIEAIDPEKLNVFRTVREITGFLNIQSWPPNMTDFSVFSNLVTIGGRVLYSGLSLLILKQQGITSLQFQSLKEISAGNIYITDNSNLCYYHTINWTTLFSTINQRIVIRDNRKAENCTAEGMVCNHLCSSDGCWGPGPDQCLSCRRFSRGRICIESCNLYDGEFREFENGSICVECDPQCEKMEDGLLTCHGPGPDNCTKCSHFKDGPNCVEKCPDGLQGANSFIFKYADPDRECHPCHPNCTQGCNGPTSHDCIYYPWTGHSTLPQHARTPLIAAGVIGGLFILVIVGLTFAVYVRRKSIKKKRALRRFLETELVEPLTPSGTAPNQAQLRILKETELKRVKVLGSGAFGTVYKGIWVPEGETVKIPVAIKILNETTGPKANVEFMDEALIMASMDHPHLVRLLGVCLSPTIQLVTQLMPHGCLLEYVHEHKDNIGSQLLLNWCVQIAKGMMYLEERRLVHRDLAARNVLVKSPNHVKITDFGLARLLEGDEKEYNADGGKMPIKWMALECIHYRKFTHQSDVWSYGVTIWELMTFGGKPYDGIPTREIPDLLEKGERLPQPPICTIDVYMVMVKCWMIDADSRPKFKELAAEFSRMARDPQRYLVIQGDDRMKLPSPNDSKFFQNLLDEEDLEDMMDAEEYLVPQAFNIPPPIYTSRARIDSNRSEIGHSPPPAYTPMSGNQFVYRDGGFAAEQGVSVPYRAPTSTIPEAPVAQGATAEIFDDSCCNGTLRKPVAPHVQEDSSTQRYSADPTVFAPERSPRGELDEEGYMTPMRDKPKQEYLNPVEENPFVSRRKNGDLQALDNPEYHNASNGPPKAEDEYVNEPLYLNTFANTLGKAEYLKNNILSMPEKAKKAFDNPDYWNHSLPPRSTLQHPDYLQEYSTKYFYKQNGRIRPIVAENPEYLSEFSLKPGTVLPPPPYRHRNTVV
In the case of B1, the Michaelis-Menten constant (Km) was determined as 8 µM in series [1]; 37.6 µM in series [2]; 12.5 µM in series [3]; 6 µM in series [4]; 144 µM in series [5]; 41 µM in series [6]. Also, the turnover number (kcat) in series [1] turned out to be 0.0683 s⁻¹; in series [2] it was 0.0767 s⁻¹; in series [3], 0.0217 s⁻¹; in series [4], 0.015 s⁻¹; in series [5] it was 0.0767 s⁻¹; in series [6], 0.105 s⁻¹. Further, the kcat/Km was found to be 8500 M⁻¹ s⁻¹ in series [1]; 2000 M⁻¹ s⁻¹ in series [2]; 1670 M⁻¹ s⁻¹ in series [3]; 2500 M⁻¹ s⁻¹ in series [4]; 533 M⁻¹ s⁻¹ in series [5]; 2500 M⁻¹ s⁻¹ in series [6].

The record behind these values is patent US20030113711A1, “Protein kinase peptide substrate determination using peptide libraries” (priority 2001, published 2003).
